Test [1] deals with OVA-induced food allergy (allergic diarrhea). Put plainly: IgE-mediated experimental food allergy, i.g. pretreatment with HRF inhibitor before each OVA challenge. The format is in vivo, mouse. Here is the method:
FIGS. 1A-1I show GST-N19 inhibits the development of diarrhea and intestinal mastocytosis in murine food allergy. Mice were i.p. sensitized with OVA ([…]) plus alum on days 0 and 14. From day 28, mice were i.g. challenged with OVA (50 mg) three times a week. Sensitized mice were either non-pretreated (−) or i.g. pretreated with 100 μg of GST or GST-N19 (N19). (FIG. 1A) Procedure scheme. (FIG. 1B) The development of diarrhea was monitored for 90 min after each OVA challenge. (n=5 for non-sensitized group, n=3 for inhibitor non-pretreated group, n=4 for GST group, n=6 for N19 group, data are representative of at least 3 independent experiments) Log-rank test: p=0.028 (GST vs. GST-N19), p=0.036 (control vs. GST-N19). […] (FIG. 1C-FIG. 1E) Total IgE, IgG1, HRF, and HRF-reactive IgE and IgG in sera were measured by ELISA. (FIG. 1F) Serum mMCP-1 was also measured by ELISA. (FIG. 1G) Sections of jejunum were stained with chloroacetate esterase to identify mast cells. Sections indicated by rectangles are enlarged in lower rows. Bar=100 μm in large pictures and 50 μm in insets. (FIG. 1H) Flow cytometry was performed to enumerate MMC9s (Lin^−c-Kit^+ST2^+IL-17RB^−Integrin β7^lo) in jejunum. (n=14 for non-sensitized group, n=15 for inhibitor non-pretreated group, n=9 for GST group, n=9 for GST-N19 group, pooled data of 3 independent experiments) (FIG. 1I) Cytokine mRNAs in jejunum were quantified by qRT-PCR. *, **: p<0.05, p<0.01 by ANOVA with Tukey's multiple comparison.
(§1) Mice were i.p. sensitized with OVA (50 μg/mouse) plus alum on days 0 and 14. From day 28, mice were i.g. challenged with OVA (25 or 50 mg) or PBS (control) three times a week. Before each challenge, mice were starved for 3 h, then i.g. pretreated with GST, GST-N19 (100 μg/mouse), synthetic N19 peptide, or HRF-2CA. The development of diarrhea was monitored for 90 min after OVA challenge. Diarrhea severity (30) was based on states of stool: solid (score 0), funicular (score 1), slurry (score 2), and watery (score 3).
For histologic analysis, jejunal tissue was fixed in 10% formalin. Mast cells in jejunal sections were detected by chloroacetate esterase staining. IgE, IgG, IgG1, IgG2a, mMCP-1, HRF, HRF-reactive IgE, and HRF-reactive IgG 24 h after the last OVA challenge were measured by ELISA (see Supplemental Information). Cytokine mRNAs in jejunum were quantified by qRT-PCR.
Twenty-four hours after the last OVA challenge, mice were sacrificed and small intestines (0.5-15 cm from stomach) were collected. The intestinal tissues were opened longitudinally and washed with HBSS. The washed tissues were incubated with 5 mM EDTA-HBSS for 30 min at 4° C., transferred to 30 ml HBSS in 50 ml tubes, and vigorously shaken to remove intestinal epithelial cells. The tissues were then washed with 10 ml of 10% FCS RPMI medium. Tissues were cut into tiny pieces and incubated with 2.4 mg/ml Collagenase D and 0.2 mg/ml DNase for 30 min at 37° C. Then cells were washed, resuspended in 44% Percoll solution, and slowly loaded on the top of 67% Percoll solution. The cells were centrifuged (1800 rpm, 20 min) and lymphocyte fractions were collected and used for detection of MMC9s (Lin^−c-Kit^+ST2^+IL-17RB^−Integrin β7^lo).
The cells were first incubated with 2.4G2 for 15 min at 4° C. and further incubated with Abs (PE-anti-07 integrin mAb (clone FIB504), PerCP/Cy5.5-anti-CD4 mAb (clone RM4-5), PerCP/Cy5.5-anti-CD8 mAb (clone 53-6.7), PerCP/Cy5.5-anti-CD11b mAb (clone M1/70), PerCP/Cy5.5-anti-CD11c mAb (clone N418), PerCP/Cy5.5-anti-B220 mAb (RA3-6B2), PerCP/Cy5.5-anti-Ly-6G/Ly-6C mAb (clone RB6-8C5), PerCP/Cy5.5-anti-CD335 mAb (clone 29A1.4), AlexaFluor647-anti-IL-17RB (clone 9B10), APC/Cy7-anti-CD117 (clone 2B8), Biotin-anti-ST2 (clone DIH9)) (Biolegend) for 30 min at 4° C. After washed, the cells were incubated with SA-BV421 (Biolegend) for 30 min at 4° C. MMC9 population was identified using FACS Canto. Data were analyzed using FlowJo software.

The test system is the same in test [2]. As to the kind of experiment: Therapeutic i.v. treatment with HRF inhibitor after allergic diarrhea is established. The note with it: i.v. 30 μg twice. The test is classed as in vivo, mouse. As to the method:
FIGS. 5A-5F show therapeutic treatment with HRF inhibitor ameliorates the severity of food allergy. Mice were sensitized and i.g. challenged with OVA. By the seventh OVA challenge, all the mice suffered diarrhea. These mice were pretreated i.v. with 30 μg of HRF-2CA (2CA) or PBS (OVA) before challenged with OVA two more times. (FIG. 5A) Procedure scheme. (FIG. 5B) Diarrhea severity (n=11 for OVA, n=13 for HRF-2CA and n=4 for non-sensitized control (not shown); pooled data of two independent experiments). ***: p<0.001 by two-way ANOVA. (FIG. 5C) Total and OVA-specific IgE and IgG1 concentration in sera were measured by ELISA. (FIG. 5D) mMCP-1 in sera was measured by ELISA. (FIG. 5E) Sections of jejunum were stained with chloroacetate esterase. (FIG. 5C—FIG. 5E) *, **, ***: p<0.05, p<0.01, p<0.001 by Student's t-test. (FIG. 5F) Similar i.v. therapeutic treatment of allergic mice was conducted with 30 μg of synthetic N19 peptide (n=12 for OVA and n=12 for pepN19; pooled data of two independent experiments). […] by two-way ANOVA.
as §1
Applicant next tested whether HRF inhibitors modulate food allergy after diarrhea has begun. […] One cohort of mice was intravenously (i.v.) treated twice with PBS followed by OVA challenge, and the other were i.v. treated twice with 30 μg of HRF-2CA followed by OVA challenge (FIG. 5A).

B1: HRF-2CA-His6, a monomeric mutant of mouse HRF (protein)
chain: MIIYRDLISHDELFSDIYKIREIADGLALEVEGKMVSRTEGAIDDSLIGGNASAEGPEGEGTESTVVTGVDIVMNHHLQETSFTKEAYKKYIKDYMKSLKGKLEEQKPERVKPFMTGAAEQIKHILANFNNYQFFIGENMNPDGMVALLDYREDGVTPFMIFFKDGLEMEKAHHHHHH
For the molecule B1, in test [1] (OVA-sensitized mice after OVA challenges, i.g. pretreatment), the “HRF-reactive IgE levels” value is on record as “did not affect”. In addition, in test [1] (after eleven OVA challenges), the “reduction of HRF-reactive IgG levels” value was “not affected”. Besides, in test [1] (i.g. pretreatment before each OVA challenge, chloroacetate esterase staining), the “number of mucosal mast cells in jejunum (intestinal mastocytosis)” value was “inhibits”. Moreover, in test [1] (i.g. pretreatment, serum ELISA), the “levels of total IgE, IgG1, IgG2a or HRF-reactive IgE and IgG” value was “failed to affect”. Further, in test [1] (sensitized mice pretreated i.g. with 100 μg before each OVA challenge), the “diarrhea occurrence / incidence” value is on record as “inhibits”. For the same molecule, in test [2] (after diarrhea by the 7th OVA challenge), the “clinical scores (diarrhea severity, severity of food allergy)” value is listed as “significantly reduced”. Further, in test [2] (therapeutic), the mucosal mast cells entry is “did not reduce”; the “serum mMCP-1 levels” value is “modestly but significantly reduced”; the “total IgE, IgG1” value is recorded as “did not reduce”.

These data come from patent US20220241369A1, “COMPOSITIONS AND METHODS OF MODULATING INFLAMMATION” (La Jolla Institute for Allergy and Immunology, priority 2018, published 2022).
